How the values were obtained:
Assay in all cases: SPR; Biacore T100; FADD DED amine-coupled to CM5 chip; caspase-8 DEDs 250 to 5,000 nM as analyte in HBS-EP+ (10 mM HEPES pH 7.4, 150 mM NaCl, 3 mM EDTA, 0.05% P20), 25°C; apparent KD
Conditions in all cases: both partners purified
[1] = biological target: T1, caspase-8 DEDs (residues 1-188), His-tagged, wild type (human, UniProt Q14790 1-188)
T1 construct: human caspase-8, tandem death-effector domains DED1 and DED2, residues 1-188; Cloned in pET-28a; also called His-caspase-8 DEDs (1-188); wild-type caspase-8 DEDs; source: E. coli BL21(DE3), purified (Ni-NTA, gel filtration); also co-expressed with FADD DED in E. coli and co-purified

[2] = biological target: T2, caspase-8 DEDs (residues 1-188) I128A, His-tagged (human, UniProt Q14790 1-188, I128A)
T2 construct: human caspase-8, tandem death-effector domains, residues 1-188; also called Caspase-8 DEDs (I128A); source: E. coli BL21(DE3), purified (Ni-NTA, gel filtration)

[3] = biological target: T3, caspase-8 DEDs (residues 1-188) R5E/I128A, His-tagged (human, UniProt Q14790 1-188, R5E | I128A)
T3 construct: human caspase-8, tandem death-effector domains, residues 1-188; also called Caspase-8 DEDs (R5E/I128A); source: E. coli BL21(DE3), purified (Ni-NTA, gel filtration)
T3 sequence (Q14790 1-188 R5E/I128A): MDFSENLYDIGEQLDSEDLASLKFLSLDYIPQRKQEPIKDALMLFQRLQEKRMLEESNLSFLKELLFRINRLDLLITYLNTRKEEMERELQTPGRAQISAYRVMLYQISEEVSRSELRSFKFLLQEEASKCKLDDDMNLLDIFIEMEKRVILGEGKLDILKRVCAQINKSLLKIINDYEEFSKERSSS

T2 sequence (Q14790 1-188 I128A): as the sequence (Q14790 1-188 R5E/I128A) above, with E5R counted along it
T1 sequence (Q14790 1-188): as the sequence (Q14790 1-188 R5E/I128A) above, with E5R, A128I counted along it

B1: FADD DED (residues 1-83), His-tagged (domain or fragment, human, UniProt Q13158 1-83, looked up)
chain: MDPFLVLLHSVSSSLSSSELTELKFLCLGRVGKRKLERVQSGLDLFSMLLEQNDLEPGHTELLRELLASLRRHDLLRRVDDFE
notes: human FADD (MORT1), death-effector domain construct, residues 1-83; Cloned in pET-28a; also called wild-type FADD DED; Fas-associated death domain; source: E. coli BL21(DE3), purified (Ni-NTA, gel filtration); also co-expressed with caspase-8 DEDs in E. coli and co-purified
Kd [1]: 38 nM | Kd [2]: 61 nM | Kd [3]: 236 nM
